Source: patent US20160024208A1 (Regeneron, published 2016)

Target: T1, mouse Nav 1.7 in DRG neurons of wild type (Scn9a +/+) mice (mouse, UniProt Q62205 1-1984)
T1 construct: whole, on cells
Experiment: immunocytochemistry on cultured DRG neurons, antibody 66 nM
Experimental: Briefly, lumbar DRGs were harvested from Scn9a^{hu/+}, Scn9a^{hu3-1/hu3-1} and Scn9a^{+/+} mice. After dissociation, cells were plated at a density of 5.5×10⁴ cells/well on 96 well plates treated with poly-DL-ornithine (0.1 mg/ml) and laminin (5 μg/ml) followed by incubation at 37° C. in 96.5% air and 3.5% CO₂. Neurons were maintained in culture in DMEM supplemented with 50 ng/ml nerve growth factor, 100 U/ml penicillin/streptomycin, MEM vitamins, and 10% heat-inactivated fetal calf serum.
After 3 to 8 days in culture, neurons were fixed in 4% PFA and 4% sucrose in PBS for 30 minutes, and permeabilized in 10% NGS and 0.1% Triton X-100. Neurons were then incubated overnight at 4° C. with anti-Naᵥ 1.7 antibodies at 66 nM (1 μg). The next day, neurons were incubated in 1:400 dilution of anti-human Alexa Fluor® 594 (Invitrogen) conjugated secondary antibody for 1 h at RT. Images were taken using a fluorescent microscope.

T1 sequence (Q62205 whole entry): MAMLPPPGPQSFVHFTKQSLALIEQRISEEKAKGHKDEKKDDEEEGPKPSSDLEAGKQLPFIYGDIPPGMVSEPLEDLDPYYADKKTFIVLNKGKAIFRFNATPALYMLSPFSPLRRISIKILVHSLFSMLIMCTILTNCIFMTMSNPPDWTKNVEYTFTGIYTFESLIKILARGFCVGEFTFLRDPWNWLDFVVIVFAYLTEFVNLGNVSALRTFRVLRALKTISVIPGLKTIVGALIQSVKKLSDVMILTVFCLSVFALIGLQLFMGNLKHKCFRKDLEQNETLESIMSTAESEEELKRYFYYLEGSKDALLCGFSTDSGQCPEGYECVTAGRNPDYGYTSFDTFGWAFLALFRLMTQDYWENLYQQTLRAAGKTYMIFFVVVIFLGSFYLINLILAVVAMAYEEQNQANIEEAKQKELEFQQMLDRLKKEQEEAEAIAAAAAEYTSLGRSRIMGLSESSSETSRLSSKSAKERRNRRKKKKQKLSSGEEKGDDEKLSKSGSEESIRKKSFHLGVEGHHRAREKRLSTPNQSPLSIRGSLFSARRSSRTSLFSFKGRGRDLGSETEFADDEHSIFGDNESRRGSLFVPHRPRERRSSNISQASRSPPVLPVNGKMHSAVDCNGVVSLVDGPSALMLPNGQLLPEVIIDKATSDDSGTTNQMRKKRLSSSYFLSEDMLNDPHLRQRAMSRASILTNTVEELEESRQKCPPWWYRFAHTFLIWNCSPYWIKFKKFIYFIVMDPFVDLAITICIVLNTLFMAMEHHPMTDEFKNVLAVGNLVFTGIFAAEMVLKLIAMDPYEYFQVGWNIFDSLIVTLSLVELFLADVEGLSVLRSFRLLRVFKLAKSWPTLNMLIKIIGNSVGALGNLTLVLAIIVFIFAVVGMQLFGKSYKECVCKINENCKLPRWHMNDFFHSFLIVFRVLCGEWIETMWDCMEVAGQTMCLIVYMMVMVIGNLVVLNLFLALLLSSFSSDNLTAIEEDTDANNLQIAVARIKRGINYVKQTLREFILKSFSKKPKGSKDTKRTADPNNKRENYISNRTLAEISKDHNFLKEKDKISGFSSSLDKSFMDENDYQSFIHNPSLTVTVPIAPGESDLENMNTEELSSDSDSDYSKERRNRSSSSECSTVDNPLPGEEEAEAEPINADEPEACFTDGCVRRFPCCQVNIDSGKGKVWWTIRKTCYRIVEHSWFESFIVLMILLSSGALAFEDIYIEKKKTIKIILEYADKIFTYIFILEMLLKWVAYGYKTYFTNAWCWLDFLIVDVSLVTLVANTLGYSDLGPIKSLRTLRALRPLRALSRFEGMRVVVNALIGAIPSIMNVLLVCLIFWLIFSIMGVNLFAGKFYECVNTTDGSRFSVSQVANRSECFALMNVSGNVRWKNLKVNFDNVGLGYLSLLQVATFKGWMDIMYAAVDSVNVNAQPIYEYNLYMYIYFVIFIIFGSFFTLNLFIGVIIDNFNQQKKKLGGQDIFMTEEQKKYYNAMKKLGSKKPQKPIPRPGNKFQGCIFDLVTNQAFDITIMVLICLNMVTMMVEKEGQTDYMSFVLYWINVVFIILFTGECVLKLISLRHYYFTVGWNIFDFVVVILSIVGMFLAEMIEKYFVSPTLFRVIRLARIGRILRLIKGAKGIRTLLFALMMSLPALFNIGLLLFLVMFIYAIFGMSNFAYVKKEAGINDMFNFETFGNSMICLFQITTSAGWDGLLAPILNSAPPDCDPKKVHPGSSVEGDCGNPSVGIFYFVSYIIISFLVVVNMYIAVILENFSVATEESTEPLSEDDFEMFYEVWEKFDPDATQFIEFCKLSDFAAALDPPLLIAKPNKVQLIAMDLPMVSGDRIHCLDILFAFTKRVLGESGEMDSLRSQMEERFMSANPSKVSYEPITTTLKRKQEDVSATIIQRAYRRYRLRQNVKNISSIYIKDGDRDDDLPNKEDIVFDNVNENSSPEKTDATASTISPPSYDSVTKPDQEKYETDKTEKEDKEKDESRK

binding result: binds
B1: H1H1006B (antibody, V domains shown)
VH: EVQLVESGPGLVKSSETLSLKCTVSGGSISSSGYYWGWIRQPPGKGLEWIGSIHRSGSTFYNPSLKSRVTISVDTSKSQFSLRLTSVTAADTSVYFCGRHGRDYYYGMDVWGQGTTVTVSS
VL: DIQMTQSPSSVSASVGDRVTITCRSSQDINNWLVWYQQKPGKAPKVLIYGASRLQSGVPSRFSGSGSGTDFTLTISSLQPEDFATYYCQQANSFPLTFGGGTKVEIKR
notes: Fully human antibody; also called H4H1006B-1
